Assay results reported in IntAct's records for PubMed 35512704.

B1: Mothers against decapentaplegic homolog 4 (Homo sapiens), Q13485 (parent)
chain: MDNMSITNTPTSNDACLSIVHSLMCHRQGGESETFAKRAIESLVKKLKEKKDELDSLITAITTNGAHPSKCVTIQRTLDGRLQVAGRKGFPHVIYARLWRWPDLHKNELKHVKYCQYAFDLKCDSVCVNPYHYERVVSPGIDLSGLTLQSNAPSSMMVKDEYVHDFEGQPSLSTEGHSIQTIQHPPSNRASTETYSTPALLAPSESNATSTANFPNIPVASTSQPASILGGSHSEGLLQIASGPQPGQQQNGFTGQPATYHHNSTTTWTGSRTAPYTPNLPHHQNGHLQHHPPMPPHPGHYWPVHNELAFQPPISNHPAPEYWCSIAYFEMDVQVGETFKVPSSCPIVTVDGYVDPSGGDRFCLGQLSNVHRTEAIERARLHIGKGVQLECKGEGDVWVRCLSDHAVFVQSYYLDREAGRAPGDAVHKIYPSAYIKVFDLRQCHRQMQQQAATAQAAAAAQAAAVAGNIPGPGSVGGIAPAISLSAAAGIGVDDLRRLCILRMSFVKGWGPDYPRQSIKETPCWIEIHLHRALQLLDEVLHTMPIADPQPLD
partner: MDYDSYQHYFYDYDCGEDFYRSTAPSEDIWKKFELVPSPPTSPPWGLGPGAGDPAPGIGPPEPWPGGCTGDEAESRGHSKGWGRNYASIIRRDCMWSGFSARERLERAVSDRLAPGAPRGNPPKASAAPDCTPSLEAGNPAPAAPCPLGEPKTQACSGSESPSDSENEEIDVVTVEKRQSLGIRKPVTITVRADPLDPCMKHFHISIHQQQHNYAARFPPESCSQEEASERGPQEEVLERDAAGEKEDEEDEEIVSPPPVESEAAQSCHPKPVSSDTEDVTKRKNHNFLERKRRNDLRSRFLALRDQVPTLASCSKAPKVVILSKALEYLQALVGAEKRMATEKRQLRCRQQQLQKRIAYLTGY
B2: Mothers against decapentaplegic homolog 4 (Homo sapiens), Q13485 (parent)
chain: B1 chain
partner: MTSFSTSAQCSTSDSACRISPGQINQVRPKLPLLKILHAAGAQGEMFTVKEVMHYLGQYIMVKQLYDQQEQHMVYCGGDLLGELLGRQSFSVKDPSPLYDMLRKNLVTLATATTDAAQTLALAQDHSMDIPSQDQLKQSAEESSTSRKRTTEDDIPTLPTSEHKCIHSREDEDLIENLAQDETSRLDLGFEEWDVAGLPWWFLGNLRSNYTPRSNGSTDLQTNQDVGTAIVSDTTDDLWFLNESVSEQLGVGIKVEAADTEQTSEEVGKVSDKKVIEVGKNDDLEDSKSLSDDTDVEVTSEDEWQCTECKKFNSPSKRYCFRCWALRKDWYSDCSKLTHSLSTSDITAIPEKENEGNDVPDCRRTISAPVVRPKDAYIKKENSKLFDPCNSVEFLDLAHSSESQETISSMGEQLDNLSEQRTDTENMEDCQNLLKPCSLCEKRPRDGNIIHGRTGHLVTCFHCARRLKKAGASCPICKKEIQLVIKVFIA
B3: Mothers against decapentaplegic homolog 4 (Homo sapiens), Q13485 (parent)
chain: B1 chain
partner: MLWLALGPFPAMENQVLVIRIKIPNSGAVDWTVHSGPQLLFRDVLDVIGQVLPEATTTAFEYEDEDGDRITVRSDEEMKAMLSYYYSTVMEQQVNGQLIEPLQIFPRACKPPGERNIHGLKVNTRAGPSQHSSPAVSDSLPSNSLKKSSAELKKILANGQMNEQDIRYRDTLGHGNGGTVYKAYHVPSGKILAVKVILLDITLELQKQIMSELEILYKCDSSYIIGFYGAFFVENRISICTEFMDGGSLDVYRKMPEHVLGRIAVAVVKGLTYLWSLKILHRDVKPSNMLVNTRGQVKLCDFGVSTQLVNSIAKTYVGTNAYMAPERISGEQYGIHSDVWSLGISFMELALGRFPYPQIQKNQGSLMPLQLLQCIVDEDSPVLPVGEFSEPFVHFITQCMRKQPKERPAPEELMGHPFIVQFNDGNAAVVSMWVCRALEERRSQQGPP
B4: Mothers against decapentaplegic homolog 4 (Homo sapiens), Q13485 (parent)
chain: B1 chain
partner: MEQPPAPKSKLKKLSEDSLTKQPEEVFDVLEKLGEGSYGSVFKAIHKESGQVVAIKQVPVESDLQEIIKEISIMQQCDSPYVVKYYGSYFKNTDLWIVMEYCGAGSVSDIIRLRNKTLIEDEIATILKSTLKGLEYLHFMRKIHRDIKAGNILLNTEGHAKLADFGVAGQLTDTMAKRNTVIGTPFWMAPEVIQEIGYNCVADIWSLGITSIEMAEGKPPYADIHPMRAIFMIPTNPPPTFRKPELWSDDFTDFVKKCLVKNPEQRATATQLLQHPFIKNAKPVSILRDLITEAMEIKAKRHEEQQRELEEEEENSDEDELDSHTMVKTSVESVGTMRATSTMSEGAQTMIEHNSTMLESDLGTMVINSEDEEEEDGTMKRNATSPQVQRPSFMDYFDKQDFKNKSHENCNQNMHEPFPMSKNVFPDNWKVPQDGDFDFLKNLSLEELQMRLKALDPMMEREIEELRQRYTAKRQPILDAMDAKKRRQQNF

Variants of: B1
Details: with mycl_human MYCL

Variant | effect of a mutation on the interaction
R361H | with no effect

Variants of: B1
Details: with mycl_human MYCL
Remark: another data set of the same source

Variant | effect of a mutation on the interaction
R361C | with no effect

Variants of: B2
Details: with mdm4_human MDM4, O15151

Variant | effect of a mutation on the interaction
R361H | with no effect

Variants of: B2
Details: with mdm4_human MDM4, O15151
Remark: another data set of the same source

Variant | effect of a mutation on the interaction
G386D | with no effect

Variants of: B2
Details: with mdm4_human MDM4, O15151
Remark: another data set of the same source

Variant | effect of a mutation on the interaction
D351H | with no effect

Variants of: B3
Details: with mp2k5_human MAP2K5, Q13163

Variant | effect of a mutation on the interaction
R361C | with no effect

Variants of: B3
Details: with mp2k5_human MAP2K5, Q13163
Remark: another data set of the same source

Variant | effect of a mutation on the interaction
R361H | with no effect

Variants of: B3
Details: with mp2k5_human MAP2K5, Q13163
Remark: another data set of the same source

Variant | effect of a mutation on the interaction
G386D | with no effect

Variants of: B3
Details: with mp2k5_human MAP2K5, Q13163
Remark: another data set of the same source

Variant | effect of a mutation on the interaction
D351H | with no effect

Variants of: B4
Details: with stk3_human STK3, Q13188

Variant | effect of a mutation on the interaction
D351H | with no effect

Variants of: B4
Details: with stk3_human STK3, Q13188
Remark: another data set of the same source

Variant | effect of a mutation on the interaction
G386D | with no effect

Variants of: B4
Details: with stk3_human STK3, Q13188
Remark: another data set of the same source

Variant | effect of a mutation on the interaction
R361C | with no effect
